Holding throughout (assay): fluorescence anisotropy
What all share (details): 50 mM HEPES-NaOH pH 7.2, 50 mM NaCl (50-250 mM in salt series), 20 or 50 nM DNA, 60 min, 25 C
On the technique in general: In fluorescence polarisation assays a small probe gives low polarisation when free and higher when bound to something large.

Data set [1] relates to OBMg K192A (Moorella glycerini).
Data set [2] has as its system OBMg R188A (Moorella glycerini).
Data set [3] deals with OBMg R122A (Moorella glycerini).
Data set [4] relates to OBMg (ComEC OB fold) WT (Moorella glycerini).
Data set [5] deals with OBMg R175A (Moorella glycerini).
For data set [6], the system named is OBMg R112A (Moorella glycerini).
For data set [7], the system named is OBMg R150A (Moorella glycerini).
The test system of data set [8] is OBMg R115A (Moorella glycerini).

For “GTTCGCAACGAA (double strand) [12 bp dsDNA]”, the binding signal (fold Kd increase vs WT) in data set [1], in data set [2], in data set [3], in data set [5], in data set [6] and in data set [7] was over 2 throughout. In data set [8], the binding signal (fold Kd increase vs WT) is over 2. In addition, the Kd (usually the equilibrium constant for the complex coming apart) in data set [4] was determined as 330 nM.

Consider GTTCGCAACGAA [12-mer ssDNA], for which the Kd in data set [4] was 790 nM.

For the origin of these results see publication PMC12455585.
